Tests used:
Test in all cases: cell-based or functional assay
[1] = biological target: HIV-1 Env of isolate 92UG001 (subtype D) (HIV-1)
[2] = biological target: HIV-1 Env of isolate 92UG005 (subtype D) (HIV-1)
[3] = biological target: HIV-1 Env of isolate 92UG024 (subtype D) (HIV-1)
[4] = biological target: HIV-1 Env of isolate 92UG046 (subtype D) (HIV-1)
[5] = biological target: HIV-1 Env of isolate 92UG114 (subtype D) (HIV-1)
[6] = biological target: HIV-1 Env of isolate 98CN006 (subtype CRF08_BC) (HIV-1)
[7] = biological target: HIV-1 Env of isolate 98CN009 (subtype CRF07_BC) (HIV-1)
[8] = biological target: HIV-1 Env of isolate MGRM-D-001 (subtype D) (HIV-1)
[9] = biological target: HIV-1 Env of isolate MGRM-D-002 (subtype D) (HIV-1)
[10] = biological target: HIV-1 Env of isolate MGRM-D-003 (subtype D) (HIV-1)
[11] = biological target: HIV-1 Env of isolate MGRM-D-004 (subtype D) (HIV-1)
[12] = biological target: HIV-1 Env of isolate MGRM-D-005 (subtype D) (HIV-1)
[13] = biological target: HIV-1 Env of isolate MGRM-D-008 (subtype D) (HIV-1)
[14] = biological target: HIV-1 Env of isolate MGRM-D-011 (subtype D) (HIV-1)
[15] = biological target: HIV-1 Env of isolate MGRM-D-012 (subtype D) (HIV-1)
[16] = biological target: HIV-1 Env of isolate MGRM-D-013 (subtype D) (HIV-1)
[17] = biological target: HIV-1 Env of isolate MGRM-D-014 (subtype D) (HIV-1)
[18] = biological target: HIV-1 Env of isolate MGRM-D-016 (subtype D) (HIV-1)
[19] = biological target: HIV-1 Env of isolate MGRM-D-018 (subtype D) (HIV-1)
[20] = biological target: HIV-1 Env of isolate MGRM-D-019 (subtype D) (HIV-1)
[21] = biological target: HIV-1 Env of isolate MGRM-D-020 (subtype D) (HIV-1)
[22] = biological target: HIV-1 Env of isolate MGRM-D-021 (subtype D) (HIV-1)
[23] = biological target: HIV-1 Env of isolate MGRM-D-022 (subtype D) (HIV-1)
[24] = biological target: HIV-1 Env of isolate MGRM-D-024 (subtype D) (HIV-1)
[25] = biological target: HIV-1 Env of isolate MGRM-D-026 (subtype D) (HIV-1)
[26] = biological target: HIV-1 Env of isolate MGRM-D-028 (subtype D) (HIV-1)
[27] = biological target: HIV-1 Env of isolate MGRM-D-029 (subtype D) (HIV-1)
[28] = biological target: HIV-1 Env of isolate MGRM-F1-004 (subtype F) (HIV-1)
[29] = biological target: HIV-1 Env of isolate MGRM-F1-006 (subtype F) (HIV-1)
[30] = biological target: HIV-1 Env of isolate MGRM-F1-008 (subtype F) (HIV-1)
[31] = biological target: HIV-1 Env of isolate MGRM-F1-010 (subtype F) (HIV-1)
[32] = biological target: HIV-1 Env of isolate MGRM-F1-012 (subtype F) (HIV-1)
[33] = biological target: HIV-1 Env of isolate MGRM-F1-013 (subtype F) (HIV-1)
[34] = biological target: HIV-1 Env of isolate MGRM-F1-014 (subtype F) (HIV-1)
[35] = biological target: HIV-1 Env of isolate MGRM-F1-015 (subtype F) (HIV-1)
[36] = biological target: HIV-1 Env of isolate MGRM-F1-016 (subtype F) (HIV-1)
[37] = biological target: HIV-1 Env of isolate MGRM-F1-017 (subtype F) (HIV-1)
[38] = biological target: HIV-1 Env of isolate MGRM-F1-018 (subtype F) (HIV-1)
[39] = biological target: HIV-1 Env of isolate MGRM-F1-020 (subtype F) (HIV-1)
[40] = biological target: HIV-1 Env of isolate MGRM-F1-021 (subtype F) (HIV-1)
[41] = biological target: HIV-1 Env of isolate MGRM-F1-022 (subtype F) (HIV-1)
[42] = biological target: HIV-1 Env of isolate MGRM-F1-023 (subtype F) (HIV-1)
[43] = biological target: HIV-1 Env of pseudovirus isolate MGRM-G-001 (subtype G) (HIV-1)
[44] = biological target: HIV-1 Env of pseudovirus isolate MGRM-G-004 (subtype G) (HIV-1)
[45] = biological target: HIV-1 Env of pseudovirus isolate MGRM-G-006 (subtype G) (HIV-1)
[46] = biological target: HIV-1 Env of pseudovirus isolate MGRM-G-009 (subtype G) (HIV-1)
[47] = biological target: HIV-1 Env of pseudovirus isolate MGRM-G-011 (subtype G) (HIV-1)
[48] = biological target: HIV-1 Env of pseudovirus isolate MGRM-G-013 (subtype G) (HIV-1)
[49] = biological target: HIV-1 Env of pseudovirus isolate MGRM-G-014 (subtype G) (HIV-1)
[50] = biological target: HIV-1 Env of pseudovirus isolate MGRM-G-015 (subtype G) (HIV-1)
[51] = biological target: HIV-1 Env of pseudovirus isolate MGRM-G-016 (subtype G) (HIV-1)
[52] = biological target: HIV-1 Env of pseudovirus isolate MGRM-G-017 (subtype G) (HIV-1)
[53] = biological target: HIV-1 Env of pseudovirus isolate MGRM-G-019 (subtype G) (HIV-1)
[54] = biological target: HIV-1 Env of pseudovirus isolate MGRM-G-024 (subtype G) (HIV-1)
[55] = biological target: HIV-1 Env of pseudovirus isolate MGRM-G-025 (subtype G) (HIV-1)
[56] = biological target: HIV-1 Env of pseudovirus isolate MGRM-G-027 (subtype G) (HIV-1)
[57] = biological target: HIV-1 Env of pseudovirus isolate MGRM-G-028 (subtype G) (HIV-1)
[58] = biological target: envelope of aMLV pseudovirus (negative control)

PGT-121 (antibody)
IC50 (neutralization) [1]: > 50 µg/mL | IC50 (neutralization) [2]: 18.3 µg/mL | IC50 (neutralization) [3]: > 50 µg/mL | IC50 (neutralization) [4]: > 50 µg/mL | IC50 (neutralization) [5]: 0.004 µg/mL | IC50 (neutralization) [6]: 0.01 µg/mL | IC50 (neutralization) [7]: 0.009 µg/mL | IC50 (neutralization) [8]: 0.615 µg/mL | IC50 (neutralization) [9]: 0.006 µg/mL | IC50 (neutralization) [10]: 10.7 µg/mL | IC50 (neutralization) [11]: > 50 µg/mL | IC50 (neutralization) [12]: > 50 µg/mL | IC50 (neutralization) [13]: > 50 µg/mL | IC50 (neutralization) [14]: 0.018 µg/mL | IC50 (neutralization) [15]: > 50 µg/mL | IC50 (neutralization) [16]: > 50 µg/mL | IC50 (neutralization) [17]: 0.009 µg/mL | IC50 (neutralization) [18]: > 50 µg/mL | IC50 (neutralization) [19]: 0.005 µg/mL | IC50 (neutralization) [20]: > 50 µg/mL | IC50 (neutralization) [21]: 0.01 µg/mL | IC50 (neutralization) [22]: 5.33 µg/mL | IC50 (neutralization) [23]: > 50 µg/mL | IC50 (neutralization) [24]: 0.038 µg/mL | IC50 (neutralization) [25]: > 50 µg/mL | IC50 (neutralization) [26]: 0.009 µg/mL | IC50 (neutralization) [27]: > 50 µg/mL | IC50 (neutralization) [28]: 1.67 µg/mL | IC50 (neutralization) [29]: 5.33 µg/mL | IC50 (neutralization) [30]: > 50 µg/mL | IC50 (neutralization) [31]: 0.016 µg/mL | IC50 (neutralization) [32]: 1.91 µg/mL | IC50 (neutralization) [33]: 0.083 µg/mL | IC50 (neutralization) [34]: 0.082 µg/mL | IC50 (neutralization) [35]: 28.4 µg/mL | IC50 (neutralization) [36]: 0.931 µg/mL | IC50 (neutralization) [37]: 16.9 µg/mL | IC50 (neutralization) [38]: 0.04 µg/mL | IC50 (neutralization) [39]: 0.167 µg/mL | IC50 (neutralization) [40]: 0.099 µg/mL | IC50 (neutralization) [41]: 0.104 µg/mL | IC50 (neutralization) [42]: 0.097 µg/mL | IC50 [43]: 0.004 µg/mL | IC50 [44]: 0.115 µg/mL | IC50 [45]: > 50 µg/mL | IC50 [46]: 0.02 µg/mL | IC50 [47]: 3.17 µg/mL | IC50 [48]: 3.99 µg/mL | IC50 [49]: 0.009 µg/mL | IC50 [50]: > 50 µg/mL | IC50 [51]: > 50 µg/mL | IC50 [52]: 0.004 µg/mL | IC50 [53]: 0.011 µg/mL | IC50 [54]: 0.014 µg/mL | IC50 [55]: 0.063 µg/mL | IC50 [56]: 0.124 µg/mL | IC50 [57]: 0.014 µg/mL | IC50 [58]: > 50 µg/mL

PGT-122 (antibody)
IC50 (neutralization) [1]: > 50 µg/mL | IC50 (neutralization) [2]: > 50 µg/mL | IC50 (neutralization) [3]: > 50 µg/mL | IC50 (neutralization) [4]: > 50 µg/mL | IC50 (neutralization) [5]: 0.011 µg/mL | IC50 (neutralization) [6]: 0.021 µg/mL | IC50 (neutralization) [7]: 0.013 µg/mL | IC50 (neutralization) [8]: 1.13 µg/mL | IC50 (neutralization) [9]: 0.005 µg/mL | IC50 (neutralization) [10]: > 50 µg/mL | IC50 (neutralization) [11]: > 50 µg/mL | IC50 (neutralization) [12]: > 50 µg/mL | IC50 (neutralization) [13]: > 50 µg/mL | IC50 (neutralization) [14]: 0.019 µg/mL | IC50 (neutralization) [15]: > 50 µg/mL | IC50 (neutralization) [16]: > 50 µg/mL | IC50 (neutralization) [17]: 0.012 µg/mL | IC50 (neutralization) [18]: > 50 µg/mL | IC50 (neutralization) [19]: 0.007 µg/mL | IC50 (neutralization) [20]: > 50 µg/mL | IC50 (neutralization) [21]: 0.007 µg/mL | IC50 (neutralization) [22]: 11.7 µg/mL | IC50 (neutralization) [23]: > 50 µg/mL | IC50 (neutralization) [24]: 0.185 µg/mL | IC50 (neutralization) [25]: > 50 µg/mL | IC50 (neutralization) [26]: 3.34 µg/mL | IC50 (neutralization) [27]: > 50 µg/mL | IC50 (neutralization) [28]: 1.29 µg/mL | IC50 (neutralization) [29]: 3.27 µg/mL | IC50 (neutralization) [30]: > 50 µg/mL | IC50 (neutralization) [31]: 0.024 µg/mL | IC50 (neutralization) [32]: > 50 µg/mL | IC50 (neutralization) [33]: 0.152 µg/mL | IC50 (neutralization) [34]: 0.195 µg/mL | IC50 (neutralization) [35]: 31.4 µg/mL | IC50 (neutralization) [36]: 4.81 µg/mL | IC50 (neutralization) [37]: > 50 µg/mL | IC50 (neutralization) [38]: 0.563 µg/mL | IC50 (neutralization) [39]: 0.321 µg/mL | IC50 (neutralization) [40]: 2.3 µg/mL | IC50 (neutralization) [41]: 0.277 µg/mL | IC50 (neutralization) [42]: 0.154 µg/mL | IC50 [43]: 0.005 µg/mL | IC50 [44]: 2.15 µg/mL | IC50 [45]: > 50 µg/mL | IC50 [46]: 0.514 µg/mL | IC50 [47]: 31.3 µg/mL | IC50 [48]: 3.45 µg/mL | IC50 [49]: 0.008 µg/mL | IC50 [50]: > 50 µg/mL | IC50 [51]: > 50 µg/mL | IC50 [52]: 0.032 µg/mL | IC50 [53]: 0.016 µg/mL | IC50 [54]: 0.033 µg/mL | IC50 [55]: 0.079 µg/mL | IC50 [56]: 0.606 µg/mL | IC50 [57]: 0.01 µg/mL | IC50 [58]: > 50 µg/mL
